US20240052047A1 (Pfizer, published 2024)

Target: human IL27 receptor (IL27RA/gp130 heterodimer) on human cells (human, UniProt Q6UWB1 33-636; P40189 23-918)
Experiment: cell-based or functional assay

Chain of human IL27 receptor (IL27RA/gp130 heterodimer) on human cells (Q6UWB1 33-636 limits assumed, chain 1 of 2): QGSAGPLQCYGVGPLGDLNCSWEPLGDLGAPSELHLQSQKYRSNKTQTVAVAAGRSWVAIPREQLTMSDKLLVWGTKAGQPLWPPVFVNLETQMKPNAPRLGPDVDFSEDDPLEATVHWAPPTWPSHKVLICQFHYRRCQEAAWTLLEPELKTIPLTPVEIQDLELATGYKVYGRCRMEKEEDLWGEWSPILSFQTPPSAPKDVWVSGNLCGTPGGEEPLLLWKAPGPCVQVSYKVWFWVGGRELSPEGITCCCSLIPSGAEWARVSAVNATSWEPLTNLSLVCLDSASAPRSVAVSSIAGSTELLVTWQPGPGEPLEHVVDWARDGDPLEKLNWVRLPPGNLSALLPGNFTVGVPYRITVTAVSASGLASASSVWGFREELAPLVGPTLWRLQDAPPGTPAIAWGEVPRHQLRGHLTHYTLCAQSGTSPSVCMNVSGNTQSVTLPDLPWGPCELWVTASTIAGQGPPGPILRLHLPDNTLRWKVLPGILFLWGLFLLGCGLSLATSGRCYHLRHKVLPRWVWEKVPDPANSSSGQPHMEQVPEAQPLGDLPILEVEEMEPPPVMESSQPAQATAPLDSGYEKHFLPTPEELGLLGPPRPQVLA
Chain of human IL27 receptor (IL27RA/gp130 heterodimer) on human cells (P40189 23-918 limits assumed, chain 2 of 2): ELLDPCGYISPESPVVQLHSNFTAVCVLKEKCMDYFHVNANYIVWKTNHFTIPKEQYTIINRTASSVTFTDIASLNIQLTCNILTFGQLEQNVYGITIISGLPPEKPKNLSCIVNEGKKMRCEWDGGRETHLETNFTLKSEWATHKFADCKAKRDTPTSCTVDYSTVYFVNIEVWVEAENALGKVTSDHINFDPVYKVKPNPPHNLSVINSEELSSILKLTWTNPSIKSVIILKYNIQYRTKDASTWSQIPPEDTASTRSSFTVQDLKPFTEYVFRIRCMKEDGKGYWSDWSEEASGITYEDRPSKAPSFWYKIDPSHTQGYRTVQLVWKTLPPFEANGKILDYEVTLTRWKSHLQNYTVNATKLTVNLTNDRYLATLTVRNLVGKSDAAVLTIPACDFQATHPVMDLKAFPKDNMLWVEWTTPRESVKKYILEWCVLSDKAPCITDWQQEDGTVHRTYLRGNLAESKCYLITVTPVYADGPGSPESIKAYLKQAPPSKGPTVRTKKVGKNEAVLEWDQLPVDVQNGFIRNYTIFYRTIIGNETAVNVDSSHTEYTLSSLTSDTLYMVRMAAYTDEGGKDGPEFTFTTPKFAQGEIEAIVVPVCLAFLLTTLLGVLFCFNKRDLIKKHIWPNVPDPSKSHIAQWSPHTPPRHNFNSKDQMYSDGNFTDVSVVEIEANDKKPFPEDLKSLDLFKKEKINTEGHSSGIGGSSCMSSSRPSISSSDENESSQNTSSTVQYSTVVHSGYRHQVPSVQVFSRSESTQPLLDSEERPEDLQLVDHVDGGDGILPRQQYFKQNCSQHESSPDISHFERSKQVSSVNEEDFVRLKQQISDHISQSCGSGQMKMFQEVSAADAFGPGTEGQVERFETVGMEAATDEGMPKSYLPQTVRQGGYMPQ

B1: GBT-IL-27R-4933 (KiH-mFd format IL27RA/gp130 bispecific antibody) (bispecific antibody, human IgG1, kappa)
chain 1: DIQMTQSPSSLSASVGDRVTITCRASQSVSSSYLAWYQQKPGKAPKLLIYGTESRATGVPSRFSGSGSGTDFTLTISSLQPEDFATYYCQQYGGYPTFGGGTKVEIKRTVAAPSVFIFPPSDEQLKSGTASVVCLLNNFYPREAKVQWKVDNALQSGNSQESVTEQDSKDSTYSLSSTLTLSKADYEKHKVYACEVTHQGLSSPVTKSFNRGECDKTHTCPPCPAPEAAGAPSVFLFPPKPKDTLMISRTPEVTCVVVDVSHEDPEVKFNWYVDGVEVHNAKTKPREEQYNSTYRVVSVLTVLHQDWLNGKEYKCKVSNKALPAPIEKTISKAKGQPREPQVYTLPPCREEMTKNQVSLSCAVKGFYPSDIAVEWESNGQPENNYKTTPPVLDSDGSFFLVSKLTVDKSRWQQGNVFSCSVMHEALHNHYTQKSLSLSPGK
chain 2: QVQLVQSGAEVKKPGSSVKVSCKVSGGSISSYYWSWVRQAPGQGLEWIGRIYITGNTNYNPSLKDRVTMTVDTSTSTHYMELSSLRSEDTAVYYCAREGPKLGIFDYWGQGTLVTVSSASTKGPSVFPLAPSSKSTSGGTAALGCLVKDYFPEPVTVSWNSGALTSGVHTFPAVLQSSGLYSLSSVVTVPSSSLGTQTYICNVNHKPSNTKVDKKVEPKSC
heavy: EVQLVESGGGLVQPGGSLRLSCAASGFTFEYFGLQWVRQAPGKGLEWIGYTSSGGNYEYYEETLKGRFTISRDNAKNSLYLQMNSLRAEDTAVYYCARTKTGDYWGQGTLVTVSSASTKGPSVFPLAPSSKSTSGGTAALGCLVKDYFPEPVTVSWNSGALTSGVHTFPAVLQSSGLYSLSSVVTVPSSSLGTQTYICNVNHKPSNTKVDKKVEPKSCDKTHTCPPCPAPEAAGAPSVFLFPPKPKDTLMISRTPEVTCVVVDVSHEDPEVKFNWYVDGVEVHNAKTKPREEQYNSTYRVVSVLTVLHQDWLNGKEYKCKVSNKALPAPIEKTISKAKGQPREPQVCTLPPSREEMTKNQVSLWCLVKGFYPSDIAVEWESNGQPENNYKTTPPVLDSDGSFFLYSKLTVDKSRWQQGNVFSCSVMHEALHNHYTQKSLSLSPGK
light: DIQMTQSPSSLSASVGDRVTITCRASQDIGNSLTWYQQKPGKAPKRVIFGATGLAAGVPSRFSGSGSGTDFTLTISSLQPEDFATYYCLQSKQYPYTFGQGTKLEIKRTVAAPSVFIFPPSDEQLKSGTASVVCLLNNFYPREAKVQWKVDNALQSGNSQESVTEQDSKDSTYSLSSTLTLSKADYEKHKVYACEVTHQGLSSPVTKSFNRGEC
- IDO1 in CD14+ monocytes EC50: 0.015 nM
- PD-L1 in CD14+ monocytes EC50 (human whole blood): 0.006 nM
- pSTAT1 in CD3+ T cells EC50 (human whole blood): 0.233 nM
